Results taken from article PMC3075868.

Key:
[1] = biological target: HIV-1 NL4-3 CA N21C/A22C/W184A/M185A (disulfide-crosslinked pentamer) (HIV-1 NL4-3); test: crystal structure
[2] = biological target: HIV-1 NL4-3 CA P17C/R18L/T19C/W184A/M185A (disulfide-crosslinked pentamer) (HIV-1 NL4-3); test: crystal structure

## HIV-1 NL4-3 CA N21C/A22C/W184A/M185A (disulfide-crosslinked pentamer) (natural protein)
[1]
  stoichiometry N: 5

## HIV-1 NL4-3 CA P17C/R18L/T19C/W184A/M185A (disulfide-crosslinked pentamer) (natural protein)
[2]
  stoichiometry N: 5
